What was measured:
Conditions in all cases: remark: other sources report otherwise
HLA-A*0201 (human) = assay: HLA-A*0201 peptide stabilization assay; unstable if >50% of complexes lost within 2 h
HLA-A*0301 (human) = assay: cellular competition assay vs FL-labelled reference peptide on B cells; affinity category (high/good IC50<5 uM, intermediate 5-15 uM, low >15-50 uM)
HLA-A*0101 (human) = assay: as above
HLA-A*1101 (human) = assay: as above

Row | Binder | IC50 (HLA-A*0301 (human)) [µM] | other results
1 | GLAPPQHLIRV [p53 187-197 …] |  | Stability (HLA-A*0201 (human)): 6 h
2 | FLHSGTAKSV [p53 113-122 …] |  | Stability (HLA-A*0201 (human)): 6 h
3 | VVRRCPHHER [p53 172-181 …] | 5 to 15 | 
4 | RVEGNLRVEY [p53 196-205 …] |  | IC50 (HLA-A*0101 (human)): 5 to 15 µM
5 | RMPEAAPPV [p53 65-73 …] |  | Stability (HLA-A*0201 (human)): 6 h
6 | GTRVRAMAIY [p53 154-163 …] | 5 to 15 | 
7 | RAHSSHLKSK [p53 363-372 …] | 5 to 15 | 
8 | KGQSTSRHK [p53 373-381 …] | 5 to 15 | 
9 | RAHSSHLK [p53 363-370 RAHSSHLK] |  | IC50 (HLA-A*1101 (human)): 5 to 15 µM
10 | VTCTYSPALNK [p53 122-132 …] | 5 to 15 | 
11 | GFLHSGTAK [p53 112-120 …] | 5 to 15 | IC50 (HLA-A*1101 (human)): 5 to 15 µM
12 | FLHSGTAK [p53 113-120 FLHSGTAK] | 5 to 15 | 
13 | RTEEENLRK [p53 283-291 …] |  | IC50 (HLA-A*1101 (human)): 5 to 15 µM
